Reference: publication PMC3683042, “Solution Structure and Peptide Binding of the PTB Domain from the AIDA1 Postsynaptic Signaling Scaffolding Protein” (PLoS ONE, 2013)

Key:
[1] = Thermal denaturation midpoint (Tm) by CD spectroscopy; assay type: physicochemical; conditions: far UV CD, ellipticity at 222 nm, 50 µM protein, heating 20–90°C at 2°C/min
Experimental: Far UV circular dichroism (CD) spectra were acquired with a Jasco J-810 instrument at a protein concentration of 50 µM using a rectangular cell with a 0.1 cm path length. Spectra were recorded from 260–200 nm with a scan rate of 50 nm/min and a 1.0 nm bandwidth. A midpoint denaturation temperature (Tm) was determined by heating samples from 20–90°C at 2°C/min and monitoring ellipticity at 222 nm.

[2] = Solubility of the AIDA1 PTB domain and mutants
Text: Since the objective of the aromatic-alanine substitutions was to improve solubility for a structure determination, ^15N-HSQC spectra were used qualitatively.

B1: wild type: PTB domain (aa. 1043–1195) of human AIDA1b, amino terminal 6xHis tag and intervening thrombin site (protein, UniProt Q7Z6G8 1043-1195, looked up, fragment)
chain: TPVQYWQHHPEKLIFQSCDYKAFYLGSMLIKELRGTESTQDACAKMRANCQKSTEQMKKVPTIILSVSYKGVKFIDATNKNIIAEHEIRNISCAAQDPEDLSTFAYITKDLKSNHHYCHVFTAFDVNLAYEIILTLGQAFEVAYQLALQARKG
modifications: PTB domain His tag, thrombin site
notes: PTB domain (aa. 1043–1195) of human AIDA1b, amino terminal 6xHis tag and intervening thrombin site
Tm [1]: 62 °C
solubility (in words) [2]: poor solubility
soluble concentration, at least one day at room temperature [2]: 0.15 mM
Solubility ([2]; concentrated until increased resonance line broadening or apparent turbidity, 15N-HSQC NMR read-out, 20 mM Na-phosphate, pH 7.8, […] NaCl, 0.05% (w/v) NaN3): 100 µM
